Results as given in US20250043302A1, “MUTATED HYDROXYPHENYLPYRUVATE DIOXYGENASE POLYPEPTIDE, AND CODING GENE AND USE THEREOF” (BEIJING DABEINONG BIOTECHNOLOGY CO., LTD., priority 2021, published 2025).

Assays:
Type in all cases: in vivo
[1] = system: Arabidopsis thaliana T1 plants; assay: Topramezone tolerance of transgenic Arabidopsis thaliana T1 plants (spray, bleached leaf area grade, damage score); conditions: for Classification and statistics of the grade of pesticide damage: Grade 0 / Classification and statistics of the grade of pesticide damage: Grade 1 / Classification and statistics of the grade of pesticide damage: Grade 2 / Classification and statistics of the grade of pesticide damage: Grade 3: number of plants; for Classification and statistics of the grade of pesticide damage: Grade 0 / Classification and statistics of the grade of pesticide damage: Grade 1 / Classification and statistics of the grade of pesticide damage: Grade 2 / Classification and statistics of the grade of pesticide damage: Grade 3 / Scores / Resistance evaluation: 7 DAT, Table 1; for Scores: pesticide damage score 0-100
Source text: T1 transformants were initially selected from the untransformed seeds using a glufosinate selection scheme. The Arabidopsis thaliana T1 plants (AsHPPD-02) into which the AsHPPD-02 nucleotide sequence was introduced, the Arabidopsis thaliana T1 plants (AsHPPDm-F372A-02) into which the AsHPPDm-F372A-02 nucleotide sequence was introduced, the Arabidopsis thaliana T1 plants (AsHPPDm-F383W-02) into which the AsHPPDm-F383W-02 nucleotide sequence was introduced, the Arabidopsis thaliana T1 plants (AsHPPDm-F372A-F383W-02) into which the AsHPPDm-F372A-F383W-02 nucleotide sequence was introduced, the Arabidopsis thaliana T1 plants (DBN11726N) into which the control recombinant expression vector DBN11726N was introduced, and the wild-type Arabidopsis thaliana plants (CK) (18 days after sowing) were sprayed respectively with topramezone at three concentrations (100 g ai/ha (four-fold field concentration, 4×), 200 g ai/ha (eight-fold field concentration, 8×), and 0 g ai/ha (water, 0×)), isoxaflutole at three concentrations (140 g ai/ha (two-fold field concentration, 2×), 280 g ai/ha (four-fold field concentration, 4×), and 0 g ai/ha (water, 0×)), and mesotrione at three concentrations (210 g ai/ha (two-fold field concentration, […]), 420 g ai/ha (four-fold field concentration, 4×), and 0 g ai/ha (water, 0×)), to determine the tolerance of Arabidopsis thaliana to the herbicides. The degree of damage caused by the herbicide was measured for each plant according to the proportion of bleached leaf area (the proportion of bleached leaf area=bleached leaf area/total leaf area×100%) 7 days after spraying (7 DAT): the case where there is basically no bleached phenotype is defined as grade 0, the case where the proportion of bleached leaf area is less than 50% is defined as grade 1, the case where the proportion of bleached leaf area is more than 50% is defined as grade 2, and the case where the proportion of bleached leaf area is 100% grade is defined as grade 3.
According to the method as described above in point 6 of Example 1, the aforementioned Arabidopsis thaliana T1 plants and wild-type Arabidopsis thaliana plants (CK) (18 days after sowing) were sprayed respectively with topramezone at three concentrations (25 g ai/ha (one-fold field concentration, 1×). 100 g ai/ha (four-fold field concentration, 4×), and 0 g ai/ha (water, 0×)), isoxaflutole at three concentrations (35 g ai/ha (half-fold field concentration, 0.5×). 70 g ai/ha (one-fold field concentration, 1×), and 0 g ai/ha (water, 0×)), and mesotrione at three concentrations (52.5 g ai/ha (half-fold field concentration, 0.5×), 105 g ai/ha (one-fold field concentration, 1×), and 0 g ai/ha (water, 0×)) to detect the tolerance of Arabidopsis thaliana to the herbicides.
According to the method as described above in point 6 of Example 1, the aforementioned Arabidopsis thaliana T1 plants and wild-type Arabidopsis thaliana plants (CK) (18 days after sowing) were sprayed with topramezone at three different concentrations (i.e., 100 g ai/ha (four-fold field concentration, 4×), 200 g ai/ha (eight-fold field concentration, 8×) and 0 g ai/ha (water, 0×)), isoxaflutole at three different concentrations (i.e., 140 g ai/ha (two-fold field concentration, 2×), 280 g ai/ha (four-fold field concentration, 4×) and 0 g ai/ha (water, 0×)), and mesotrione at three different concentrations (i.e., 210 g ai/ha (two-fold field concentration, 2×), 420 g ai/ha (four-fold field concentration, 4×) and 0 g ai/ha (water, 0×)) respectively to detect the herbicide tolerance of Arabidopsis thaliana. […]

[2] = system: Arabidopsis thaliana T1 plants; assay: Isoxaflutole tolerance of transgenic Arabidopsis thaliana T1 plants (spray, bleached leaf area grade, damage score); conditions: for Resistance evaluation / Classification and statistics of the grade of pesticide damage: Grade 0 / Classification and statistics of the grade of pesticide damage: Grade 1 / Classification and statistics of the grade of pesticide damage: Grade 2 / Classification and statistics of the grade of pesticide damage: Grade 3 / Scores: 7 DAT, Table 2; for Classification and statistics of the grade of pesticide damage: Grade 0 / Classification and statistics of the grade of pesticide damage: Grade 1 / Classification and statistics of the grade of pesticide damage: Grade 2 / Classification and statistics of the grade of pesticide damage: Grade 3: number of plants; for Scores: pesticide damage score 0-100;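 on Scores: Weighted damage index from 0 to 100 where higher means more damage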
Summary of the method: (§1)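 T1 transformants selected by glufosinate; 18-day-old plants, with empty-vector and wild-type controls, sprayed with topramezone (25–200 g ai/ha), isoxaflutole (35–280 g ai/ha) or mesotrione (52.5–420 g ai/ha), water as 0×. Bleached leaf area fraction scored at 7 DAT as grades 0–3.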

[3] = system: Arabidopsis thaliana T1 plants; assay: Mesotrione tolerance of transgenic Arabidopsis thaliana T1 plants (spray, bleached leaf area grade, damage score); design: Scores: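 damage score 0-100 computed as Σ(N×S)/(T×M)×100 over grades 0-3 with higher meaning more damage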; conditions: for Resistance evaluation / Classification and statistics of the grade of pesticide damage: Grade 0 / Classification and statistics of the grade of pesticide damage: Grade 1 / Classification and statistics of the grade of pesticide damage: Grade 2 / Classification and statistics of the grade of pesticide damage: Grade 3 / Scores: 7 DAT, Table 3; for Classification and statistics of the grade of pesticide damage: Grade 0 / Classification and statistics of the grade of pesticide damage: Grade 1 / Classification and statistics of the grade of pesticide damage: Grade 2 / Classification and statistics of the grade of pesticide damage: Grade 3: number of plants; for Scores: pesticide damage score 0-100
Summary of the method: as §1

[4] = mesotrione 210 g ai/ha (two-fold field concentration)

B1: AsHPPDm-F372A-F383W-02: nucleotide sequence encoding Avena sativa HPPD with F372A+F383W; vector DBN11726 (nucleic acid)
DNA: ATGCCACCTACTCCAGCTACAGCTACTGGTGCTGCTGCTGCTGCCGTTACTCCTGAGCACGCTGCCAGGTCATTCCCCAGGGTGGTTCGCGTGAACCCCAGATCTGATAGGTTCCCAGTTCTGAGCTTCCACCATGTTGAGCTGTGGTGCGCTGATGCTGCTTCTGCTGCTGGCAGGTTCTCTTTCGCTCTTGGTGCTCCACTCGCTGCTAGATCTGATCTGTCTACAGGAAATAGCGCTCATGCCTCACTCCTGCTTCGCTCAGGTGCTTTGGCCTTCCTCTTCACCGCTCCATATGCTCCCCCACCTCAGGAGGCTGCTACTGCTGCTGCTACAGCCTCCATTCCAAGCTTCTCAGCTGATGCCGCTAGAACCTTCGCTGCTGCTCATGGACTTGCCGTGAGGTCTGTTGGTGTTCGCGTGGCTGATGCTGCTGAGGCTTTCAGAGTTTCCGTTGCCGGCGGAGCTAGGCCAGCTTTCGCTCCTGCTGATTTGGGACATGGTTTCGGCCTGGCTGAGGTTGAGCTTTACGGTGACGTGGTTCTCCGCTTCGTGTCTTACCCAGATGAGACTGACCTGCCTTTCCTTCCCGGCTTCGAGAGAGTTTCCTCTCCTGGTGCCGTGGATTACGGCCTGACAAGGTTCGACCACGTGGTTGGAAACGTTCCCGAGATGGCTCCAGTGATCGATTACATGAAGGGCTTCCTTGGATTCCATGAGTTCGCCGAGTTCACTGCTGAGGACGTGGGAACCACTGAGTCCGGTTTGAACTCTGTGGTTCTCGCCAACAATTCTGAGGCTGTTTTGCTCCCTCTGAATGAGCCTGTGCATGGAACCAAGAGGAGAAGCCAGATTCAAACTTACCTGGAGTACCACGGTGGCCCTGGAGTTCAGCATATCGCCCTTGCTTCTAATGATGTGTTGCGCACACTCAGAGAGATGCGCGCCAGAACCCCCATGGGAGGTTTCGAGTTCATGGCCCCACCACAGGCTAAGTACTACGAGGGCGTTAGAAGGATTGCTGGAGACGTGTTGAGCGAGGAGCAGATCAAGGAGTGCCAAGAGCTGGGTGTTCTTGTGGATAGGGATGACCAGGGCGTTCTGCTTCAAATTGCCACTAAGCCAGTGGGCGACCGCCCTACATTCTGGCTTGAGATGATTCAAAGAATCGGCTGCATGGAGAAGGATGAGGTTGGACAGGAGTACCAAAAGGGCGGATGCGGTGGCTTCGGAAAGGGTAACTTCAGCGAGTTGTTCAAGTCAATCGAGGACTACGAGAAGAGCCTCGAGGTGAAGCAGTCAGTGGTTGCCCAAAAGTCCTGA
modifications: AsHPPDm-F372A-F383W-02 Nucleotide Sequence
notes: vector DBN11726
[1]; topramezone 100 g ai/ha (4×)
  Classification and statistics of the grade of pesticide damage: Grade 0: 16
  Classification and statistics of the grade of pesticide damage: Grade 1: 0
  Classification and statistics of the grade of pesticide damage: Grade 2: 0
  Classification and statistics of the grade of pesticide damage: Grade 3: 0
  Scores: 0
  Resistance evaluation: highly resistant (highly resistant plants (scores 0-15))
[1]; topramezone 200 g ai/ha (8×)
  Classification and statistics of the grade of pesticide damage: Grade 0: 16
  Classification and statistics of the grade of pesticide damage: Grade 1: 0
  Classification and statistics of the grade of pesticide damage: Grade 2: 0
  Classification and statistics of the grade of pesticide damage: Grade 3: 0
  Scores: 0
  Resistance evaluation: highly resistant (highly resistant plants (scores 0-15))
[1]; topramezone at four-fold or eight-fold field concentration
  tolerance to topramezone (resistance class): highly-resistant
[2]; in vivo
  tolerance to isoxaflutole (in words): different degrees of tolerance
[2]; isoxaflutole 140 g ai/ha (2×)
  Resistance evaluation: highly resistant (highly resistant plants (scores 0-15))
  Classification and statistics of the grade of pesticide damage: Grade 0: 16
  Classification and statistics of the grade of pesticide damage: Grade 1: 0
  Classification and statistics of the grade of pesticide damage: Grade 2: 0
  Classification and statistics of the grade of pesticide damage: Grade 3: 0
  Scores: 0
[2]; isoxaflutole 280 g ai/ha (4×)
  Resistance evaluation: highly resistant (highly resistant plants (scores 0-15))
  Classification and statistics of the grade of pesticide damage: Grade 0: 12
  Classification and statistics of the grade of pesticide damage: Grade 1: 4
  Classification and statistics of the grade of pesticide damage: Grade 2: 0
  Classification and statistics of the grade of pesticide damage: Grade 3: 0
  Scores: 8
[2]; isoxaflutole at four-fold field concentration
  tolerance to isoxaflutole (resistance class): highly-resistant
[2]; isoxaflutole at two-fold field concentration
  tolerance to isoxaflutole (resistance class): highly-resistant
[3]; in vivo
  tolerance to mesotrione (in words): different degrees of tolerance
[3]; [4]
  Resistance evaluation: highly resistant (highly resistant plants (scores 0-15))
  Classification and statistics of the grade of pesticide damage: Grade 0: 16
  Classification and statistics of the grade of pesticide damage: Grade 1: 0
  Classification and statistics of the grade of pesticide damage: Grade 2: 0
  Classification and statistics of the grade of pesticide damage: Grade 3: 0
  Scores: 0
[3]; mesotrione 420 g ai/ha (4×)
  Resistance evaluation: highly resistant (highly resistant plants (scores 0-15))
  Classification and statistics of the grade of pesticide damage: Grade 0: 15
  Classification and statistics of the grade of pesticide damage: Grade 1: 1
  Classification and statistics of the grade of pesticide damage: Grade 2: 0
  Classification and statistics of the grade of pesticide damage: Grade 3: 0
  Scores: 2
[3]; mesotrione at four-fold field concentration
  tolerance to mesotrione (resistance class): highly-resistant
[3]; mesotrione at two-fold field concentration
  tolerance to mesotrione (resistance class): highly-resistant
